Test: soluble on expression in E. coli; label from the status in PepcDB or PDB records
With “MGSDKIHHHHHHMVNKFTQFLVAFISLWMLHSCSGPQKEYVLKVKLNKLTQKDMYEYNLVKDVIFDAQELNVDSIKARSRESFLKGVDEYKNKHNAAAAVPLFKQSILTFPDAKTYYELGNALMELNTEASLDESIKAYRVAEELDIKPIASVYYKMACAQNMIGTLKKSDEDEYMVISYLRKSFINGFYDTLTLAKDTRINSILSTMSYKTLLRELESFKYKEDRNGLFELFKQAYPRPVEFEAALTDLTQYENKESISYDFAVFVPEMQNTEFGREVSNDFFYNALVQETPAYTALIYTSVSFWGDHDALMPSFTSLVTYDPMGIIIDRKLIACQCSAEKVKTVKIKDNKVYVEDFKRIWKQPIDKVSFDDNEVDKFESLAKLTYTINEDGTIQASEIPANYMDTVITKDQSKNTPQ” the “soluble on expression in E. coli” value was “not soluble”.
With “MFISVLDLFKIGIGPSSSHTMGPMTAANVFRDHVDQLVSQTPDDLNYRVYCVLKGSLAFTGRGHATDRAVALGLHGHSPVSLAGEDVNALTAKLWATDTLQLTSGREIGFNPEDDIVFDKSDPLPQHPNGMIFYLLDEEGKKILSETFFSIGGGFICTLAEINQ” the “soluble on expression in E. coli” value was “not soluble”.
In the case of “MGSDKIHHHHHHMDEALRTYIRVVELQSFTKAAEELHISQPAVSLQLKKLEEIYETELIYRQAKKFILTATGEILYHRAKQLEGLYKQVEDEISLYHHHLKGRLRIGASFTIGEYFLPEVIAKFHALYPDITIELIIENTAKIADKVELLQVDTGLIEGQVSKKDLEISAFSDDEMCIVGRADGSLTEIEQGATWIAREEGSGTREYLDHVLSTNGWNVAEKVVAWSNMAVKQMVLEGMGYTVISKCVVQTEITSGKLQTFNEAGSLMRKFSVLKNRQRLENRIAETFLTFLKENQ”, the “soluble on expression in E. coli” value is reported as “not soluble”.
For “MGSDKIHHHHHHMALKVLFTGADGYVGALLGPYLLEKGIEAVGLDTGFYRKGWLYPTSAPRPAVITKDIRQVTVADLEGFDAVAHLAELSNDPLGQQSPGLTHEINHGGSMHLAEMARKAGARRFVYMSSCSVYGVGQPEQILDETSPVNPQTAYAECKVKVEEDLTRRADSDFEPCFLRNATAYGASPRQRFDIVLNDLCGLAWTTNKITLQSDGSPWRPLVHALDMCQAVWRSLTAPADAIRGQAYNVGSNDQNYRVIEIARIVADSFPGCELEVGQPSADNRSYRVNFDKIQRVLPEFQCEWTAEKGARQMRQVFERIAMTPEEFRAEPYTRLKMLMRLRASKLLDDKLFWANPMVEAVA”, the “soluble on expression in E. coli” value was “not soluble”.
For “MMMSSEMIHVEVVYALPHEQRVLKLVVEQSATVEEIIRTSGILQMYPEIDLTVNKVGIFSRNVKLDARVRDKDRIEIYRPLLADPKEIRRKRAEQAKAAANQS”, the “soluble on expression in E. coli” value was “not soluble”.
For “MGSDKIHHHHHHMNETSSYTIEEVAGLLKVSKLTVYDLIKKGVLPAYRVGRQMRVDEEDLKQYKTNMRMSQPIAAKEAPKQVQEAEPDGRPNVMISGQDISMDILSKHLENAIQETPLRKYKGSLNSLIDMYQGKCDIVSLHLYDAETGQYNAPYVKRILTGEPFCLINVVLRKAGLYVQKGNPKNIQGWKDLKRADIRIINREKGSGARVLLDEQLGLLGVNPADVVGYGDIVTDHYAAASQVSSGQADAGIGAQHAAHMGSVDFIPLIDEQYDIVVLKKNEQLLKAVKEILNSEDYKANLSHLNGYETKLTGKVILET”, the “soluble on expression in E. coli” value was “not soluble”.
In the case of “MTPDHLLMLVALATFQKGIVPPTPAMELVMQVGACYHALTDAPRMGKLRLFLGKKPMAKLEQFLTEIENETDADF”, the “soluble on expression in E. coli” value is reported as “not soluble”.
In the case of “MKFLYFGDPHIRGTNPRNRKDNYKEALIAKLREIFALAKYKGVTAIIQPGDTFDRPEVTTSVLLEFAKVLKESPVPIYTTAGNHDIYGYNLATYERTSLRVLELIVPQLTVINDPGQAQMFHQDGNHVQLTFTPYSDQIDKAGYGYSPEIIEDYESTKIHIAHGMLLDHDPPFDRYTKVQDVKTEADLVLCGHDHTGFGIYERSDGKVFVNDGSLTRLSASEAEMRRQISVLLIDVKAPRVFDLERIPLQSAKPGEEVLDRSRIEAEKKRAYAMEEFASLIQTETGEDVLVDINTIVESIAKTQSINSDVVEIALTKIAEAKEGLRT”, the “soluble on expression in E. coli” value is reported as “not soluble”.
For “MIETLEENLEKVFKAIRSLIIEDMAKDMPMLALTLELLQSIPGIGLISAVTILAEIGDFSAFSKPGKLVAYFGIDPSVMQSGEFTGTQNKMSKRGSRLLRRVLFTIALANIRTKRDKTACNPVLMEYYKNKCQSKPKKVALGAVMRKLVNYIFAVLRDRKPYELRSPQEHAQMLAAKHTAA”, the “soluble on expression in E. coli” value was “not soluble”.
In the case of “MGSDKIHHHHHHAEPVADPMEEEGISVVRYDKLLDEYVRFNSFSALQKMNLEYALPTKLLIEDVLAIGQVSDDHIFQRLKTFYSDTTLVRLIEDVEAKYPELESVEKNLTKGFGKLQKEIPDIMIPMIYTQISAFNESIVLSDSVLGISLDKYMGEDYPLYKRFYYNYQRRTMRPDRIVPDCLVFYLMSQYPFPMDYSRTLLDVMMHYGKINYVVQHLLDYSSSEEALGYSDLEREWCKENQQQMWRYILEQDHLHATDPMVVRQYTRPAPFTNTLGENAPSMVGTWIGTKIITSYMKHHKKTTLRQLLEMSDYERMFTESRFNP”, the “soluble on expression in E. coli” value is reported as “not soluble”.
In the case of “MSLNRPEADREALWKIVHDRCEFGYRRTGAYAPCTFVDEQSGTALYKADFDPYQFLLIPLARITGIEDPALRESAGRNYLYDAWAARFLVTARLNNSLPESDVVLTINPKNARTQDQLHIHISCSSPTTSAALRNVDTSEYVGWKQLPIDLGGRRFQGLAVDTKAFESRNLFRDIYLKVTADGKKMENASIAVANVAQDQFLLLLAEGTEDQPVAAETLQDHDCSITKSEGHHHHHH”, the “soluble on expression in E. coli” value is reported as “not soluble”.
In the case of “MGSDKIHHHHHHLELPLPPPGEDIVGQVHVIKAKYEDTFADIGTANDLGYLEMIAANPGVDPWLPGAGTEIILPTRFVLPPGPREGIVINLAEYRMYYFPKGESVVYTFPLGIGREGWGSPIANTRITAKTPNPTWTPPASIRKEHAEDGDILPTVVPAGPDNPLGPFKFTLGVPGYLIHGSNKKFGIGMRTSHGCFRMFNNNVLELSKMVPVGTPVRIINEPYKFGISAGKVYLEAHTPLDDQGNPSVVDKHTAVINALLKREDLANNLRMNWDMVRDVVAAEDGMPVEIAVPVENQGAAPMVTSIPPELQ”, the “soluble on expression in E. coli” value is reported as “not soluble”.
In the case of “QNSPQDYLAVHNDARAQVGVGPMSWDANLASRAQNYANSRAGDCNLIHSGAGENLAKGGGDFTGRAAVQLWVSERPSYNYATNQCVGGKKCRHYTQVVWRNSVRLGCGRARCNNGWWFISCNYDPVGNWIGQRPY”, the “soluble on expression in E. coli” value is reported as “soluble”.
For “EEILGSLFLKKKKKKKKKKSRNHRYFALLLPIRKMKKFFDSRREQGGSGLGSGSSGGGGSTSGLGSGYIGRVFGIGRQQVTVDEVLAEGGFAIVFLVRTSNGMKCALKRMFVNNEHDLQVCKREIQIMRDLSGHKNIVGYIDSSINNVSSGDVWEVLILMDFCRGGQVVNLMNQRLQTGFTENEVLQIFCDTCEAVARLHQCKTPIIHRDLKVENILLHDRGHYVLCDFGSATNKFQNPQTEGVNAVEDEIKKYTTLSYRAPEMVNLYSGKIITTKADIWALGCLLYKLCYFTLPFGESQVAICDGNFTIPDNSRYSQDMHCLIRYMLEPDPDKRPDIYQVSYFSFKLLKKECPIPNVQNSPIPAKLPEPVKASEAAAKKTQPKARLTDPIPTTETSIAPRQRPKAGQTQPNPGILPIQPALTPRKRATVQPPPQAAGSSNQPGLLASVPQPKPQAPPSQPLPQTQAKQPQAPPTPQQTPSTQAQGLPAQAQATPQHQQQLFLKQQQQQQQPPPAQQQPAGTFYQQQQAQTQQFQAVHPATQQPAIAQFPVVSQGGSQQQLMQNFYQQQQQQQQQQQQQQLATALHQQQLMTQQAALQQKPTMAAGQQPQPQPAAAPQPAPAQEPAIQAPVRQQPKVQTTPPPAVQGQKVGSLTPPSSPKTQRAGHRRILSDVTHSAVFGVPASKSTQLLQAAAAEASLNKSKSATTTPSGSPRTSQQNVYNPSEGSTWNPFDDDNFSKLTAEELLNKDFAKLGEGKHPEKLGGSAESLIPGFQSTQGDAFATTSFSAGTAEKRKGGQTVDSGLPLLSVSDPFIPLQVPDAPEKLIEGLKSPDTSLLLPDLLPMTDPFGSTSDAVIGKVIISVSSVMHDMCACFKNDKYLVNQSLGNSPATPEAKAI”, the “soluble on expression in E. coli” value was “soluble”.
In the case of “MAEQLEFFPVASPCRGICQSDERGFCRGCMRSRDERFNWQKMSDVEKQNVLRLCRQRFLRKIRANKPLPSEDPQQPSLF”, the “soluble on expression in E. coli” value is reported as “not soluble”.
With “MSLDRLKQSLLDAPIIEKDGYHYFVHPISDGVPMLEPELLREIVIRIIRKAELDEVDKIVTPAAMGIHISTAVSLMTDIPIVVIRKREYGLPGEVALSQETGYSENEMYINDVHEGDRVLVLDDVLSTGGTLRAITDALEQTGADVADVLAVIKKAGPNELDDTDMDVRTLINVDEGHHHHHH” the “soluble on expression in E. coli” value was “soluble”.
With “EERFGHLLHKVEWVSLGGGIHFTGEDYAVDAFCARLKAFSEKYGVQVYLEPGEAAITNSASLEVTVLDTLYNGKHLAVVDSSIEAHLLDLLIYRLNAKMAPNDGEHTYMVCGKSCLAGDIFGEYQFDRPLAIGDRLSFIDTAGYTMVKKNWFNGLKMPSIVVKQLDGSVEVVREFGFEDYVSSLS” the “soluble on expression in E. coli” value was “not soluble”.
For “MMGSKMASASRVVQVVKPHTPLIRFPDRRDNPKPNVSEALRSAGLPSHSSVISQHSKGSKSPDLLMYQGPPDTAEIIKTLPQKYRRKLVSQEEMEFIQRGGPE”, the “soluble on expression in E. coli” value was “soluble”.
For “MAASRDIFAPDFRRRPYWWEGYEPPECGEDTLPASADVAIVGGGYTGVCCALALREAGIEAVVLEAGRPGEGASTRSGGQVSGGVNVQKKALAAVGESAGQRAERLAARLRDAAASMAYVESLIERYAIECGWRRTGRLTTMWVPAHYQSWQARLDQLNACTGSQARMIPREELAAEIGSSVYHGAALIEHAGHLQPAQLYGGMLRAARDAGARVLGRTPVERIERRAGGYDVHTARGTVRAGQVVIATIGYTGANLGGLKRRIVPVCTHMIATEALPPDLAASLLPTNRAVSESRRVVNHYRLSPDGRRLLFGGRARFVPTDEATTARLLYRAMLKRFPQLAGTRITHSWGGNVAMTLDSMPHIGGADGLHYALGCNGSGVAMMSYLGHCVGRKIATQSGEPINAFDMGEIPGHPFYFGNPWFLFAIGSWYQARDAYDHWRARLEHHHHHH”, the “soluble on expression in E. coli” value was “soluble”.
With “MGSDKIHHHHHHMSSLINDIHAEDVANYLNRNREFFHVFPNLLNELSIPHPKSGHEVSLLERQVFQLREQRDSLQVEVDTLKDIAGENGALLHKVYDLSYALLAAESEQEAVNVVYDVMHDVFTVEEVTIISWEVPKSSVHGVNQLGISQAWSQSLKETLQPGKPVCGLLEDSWQKGLFHTDKAMQSVCVIPLGQQRVWGALALGATTDRFSPELGTYFLKVMGQMVTARLQRLF” the “soluble on expression in E. coli” value was “not soluble”.
For “MSSIVCHPILDSQNGIATDAVIKKQRPPPLVLSRPKDLIQEACQRLVLSDQQLRRIMQSMEKSMEQGLATSTKKVAVKMLPTYVDSVPNGTESGDFLALDLGGTNFRVLHIKLQGKETKMTGKIFRVPESIMRGTGEALFDHIAGCMAKFMGENDLKDAQKLPLGFTFSFPCEQEGLTKGKLVTWTKGFKASGVEGVDVVTLLHEACHRRKDIDIDVVALLNDTVGTLMACAFQENSCQIGVIVGTGTNACYMERLDRIPKLAGYVDEHGVTPEEMIINTEWGAFGDDGALDFLRTEWDEVVDRESINPGQHLYEKMISGMYMGECARVVLEDLAKQGLLFGGNSDAISVPHCFPTKFVSEIDSDLLEDDDRTFQKTYQILEDIGVEMITANDCANVAYVCSLISTRAAHLTAAGIAMLLNRMNKKHVTVGVDGSVYRFHPTYPTLLDAKIGELIVGDIEYKLMLSEDGSGRGAALVAAVATRLKEEKLAASLSSSSSNQ”, the “soluble on expression in E. coli” value was “not soluble”.
In the case of “MSLQGQIDIPLDIVGRWQADQSAYELAKTYYWAKVAHLAEHNDQLAQPTYEGAHLADISEINNAPATARRMLVVSSDLFRAQQTAHAFADLMGLDVELDPRLRERSFGEWEGMTREEICEHYADDYHSWRAHTGGETKHGVESRIHTGRRGAEAVRDIVAKHHDETMPTTLLLVGHGSWIVATVAVLLDMDPDDLNNVGAMRNAFWTRMTPHTDPRNADRPTWKLEEFNQGPAIASEGHHHHHH”, the “soluble on expression in E. coli” value is reported as “soluble”.

Source: the DeepSol protein solubility set
